Patent US12383631 (BRIGHT PEAK THERAPEUTICS, dated 2025)

T1: IL-18 receptor (IL-18Rα/IL-18Rβ) on cells (HEK-Blue IL18R reporter cells, NK-92, KG-1) (human, UniProt Q13478 19-541; O95256 20-599)
T1 sequence (looked up) 1: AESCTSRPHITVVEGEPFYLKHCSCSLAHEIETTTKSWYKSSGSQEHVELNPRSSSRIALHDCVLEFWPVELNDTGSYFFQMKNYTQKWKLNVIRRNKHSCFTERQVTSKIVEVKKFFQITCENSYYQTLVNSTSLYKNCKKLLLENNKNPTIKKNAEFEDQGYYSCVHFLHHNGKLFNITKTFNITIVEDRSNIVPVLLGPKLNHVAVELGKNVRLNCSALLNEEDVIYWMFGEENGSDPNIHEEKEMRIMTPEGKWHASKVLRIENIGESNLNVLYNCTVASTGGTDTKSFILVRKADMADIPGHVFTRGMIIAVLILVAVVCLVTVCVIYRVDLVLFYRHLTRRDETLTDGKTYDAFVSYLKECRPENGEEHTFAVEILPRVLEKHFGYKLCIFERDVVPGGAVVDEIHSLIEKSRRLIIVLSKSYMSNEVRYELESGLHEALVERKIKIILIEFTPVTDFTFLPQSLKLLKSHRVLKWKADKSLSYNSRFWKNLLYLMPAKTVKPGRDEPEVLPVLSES
T1 sequence (looked up) 2: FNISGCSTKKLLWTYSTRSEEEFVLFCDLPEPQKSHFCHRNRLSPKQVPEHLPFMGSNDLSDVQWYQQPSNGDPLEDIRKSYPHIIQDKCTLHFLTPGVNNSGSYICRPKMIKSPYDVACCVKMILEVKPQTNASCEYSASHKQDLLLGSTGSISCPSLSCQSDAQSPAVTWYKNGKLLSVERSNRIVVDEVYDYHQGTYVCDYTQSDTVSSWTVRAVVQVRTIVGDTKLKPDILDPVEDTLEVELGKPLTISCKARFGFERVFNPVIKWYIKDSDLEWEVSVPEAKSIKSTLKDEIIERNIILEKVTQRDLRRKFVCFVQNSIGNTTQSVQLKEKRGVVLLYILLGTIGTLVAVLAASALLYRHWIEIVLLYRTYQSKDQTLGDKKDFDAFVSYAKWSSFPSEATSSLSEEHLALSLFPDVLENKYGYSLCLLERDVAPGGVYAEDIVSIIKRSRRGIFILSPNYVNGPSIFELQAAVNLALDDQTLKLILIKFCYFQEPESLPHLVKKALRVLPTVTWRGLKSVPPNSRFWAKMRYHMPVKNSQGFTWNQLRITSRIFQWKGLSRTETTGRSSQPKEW


Target: T1, IL-18 receptor (IL-18Rα/IL-18Rβ) on …
Assay: cell-based or functional assay

Row | Binder | EC50, HEK-Blue IL18R reporter cells [pM]
1 | IL-18 polypeptide C177 (ligand) YFGKLKSKLSIIRNLNDQVLFIDQGNRPLFEDMTDSDARDNAPRTIFIRSMYADSQPRGMAVAISVKCEKISTLSAENKIISFKEMNPPDNIKDTKSDIIFFQRSVPGHDNKMQFESSSYEGYFLAAEKERDLFKLILKKEDELGDRSIMFTVQNED | 0.04
2 | IL-18 polypeptide C179 (ligand) YFGKLKSELSIIRNLNDQVLFIDQGNRPLFEDMTDSDARDNAPRTIFIISMYADSQPRGMAVAISVKCEKISTLSAENKIISFKEMNPPDNIKDTKSDIIFFRRSVPGHDNKMQFESSSYEGYFLAAEKERDLFKLILKKEDELGDRSIMFTVQNED | 0.4
3 | IL-18 polypeptide C181 (ligand) YFGKLKSKLSIIRNLNDQVLFIDQGNRPLFEDMTDSDARDNAPRTIFIISMYADSQPRGMAVAISVKCEKISTLSAENKIISFKEMNPPDNIKDTKSDIIFFQRSVPGHDNKMQFESSSYEGYFLAAEKERDLFKLILKKEDELGDRSIMFTEQNED | 0.1
4 | IL-18 polypeptide C183 (SEQ ID NO: 69) (ligand) YFGKLKSKLSIIRNLNDQVLFIDQGNRPLFEDMTDSDARDNAPRTIFIISGYADSQPRGMAVAISVKCEKISTLSAENKIISFKEMNPPDNIKDTKSDIIFFQRSVPGHDNKMQFESSSYEGYFLAAEKERDLFKLILKKEDELGDRSIMFTVQNED | 0.1
5 | IL-18 polypeptide of SEQ ID NO: 34 (E06K, K53A, S55A) (ligand) YFGKLKSKLSVIRNLNDQVLFIDQGNRPLFEDMTDSDCRDNAPRTIFIISMYADAQPRGMAVTISVKCEKISTLSCENKIISFKEMNPPDNIKDTKSDIIFFQRSVPGHDNKMQFESSSYEGYFLACEKERDLFKLILKKEDELGDRSIMFTVQNED | 272
6 | IL-18 polypeptide C178 (ligand) YFGKLKSKLSIIRNLNDQVLFIDQGNRPLFEDMTDSDARDNAPRTIFIISMYADSQPRGMAVAISVKCEKISTLSAENKIISFKEMNPPDNIKDTKSDIIFFRRSVPGHDNKMQFESSSYEGYFLAAEKERDLFKLILKKEDELGDRSIMFTVQNED | 0.26
7 | IL-18 polypeptide C182 (ligand) YFGKLKSKLSIIRNLNDQVLFIDQGNRPLFEDMTDSDARDNAPRTIFIISMYADSQPRGMAVAISVKCEKISTLSAENKIISFKEMNPPDNIKDTKSDIIFFQRSVPGHDNKMQFESSSYEGYFLAAEKERDLFKLILKKEDELGDRSIMFTYQNED | 0.08
8 | IL-18 polypeptide C140 (SEQ ID NO: 72) (ligand) GGGGYFGKLKSKLSIIRNLNDQVLFIDQGNRPLFEDMTDSDARDNAPRTIFIISMYADSQPRGMAVAISVKCEKISTLSAENKIISFKEMNPPDNIKDTKSDIIFFQRSVPGHDNKMQFESSSYEGYFLAAEKERDLFKLILKKEDELGDRSIMFTVQNED | 2.5
9 | IL-18 polypeptide C141 (SEQ ID NO: 71) (ligand) GYFGKLKSKLSIIRNLNDQVLFIDQGNRPLFEDMTDSDARDNAPRTIFIISMYADSQPRGMAVAISVKCEKISTLSAENKIISFKEMNPPDNIKDTKSDIIFFQRSVPGHDNKMQFESSSYEGYFLAAEKERDLFKLILKKEDELGDRSIMFTVQNED | 1.68
10 | IL-18 polypeptide C192 (SEQ ID NO: 70) (ligand) GYFGKLKSKLSIIRNLNDQVLFIDQGNRPLFEDMTDSDARDNAPRTIFIISGYADSQPRGMAVAISVKCEKISTLSAENKIISFKEMNPPDNIKDTKSDIIFFQRSVPGHDNKMQFESSSYEGYFLAAEKERDLFKLILKKEDELGDRSIMFTVQNED | 14

Target: T1, IL-18 receptor (IL-18Rα/IL-18Rβ) on …
Assay: cell-based or functional assay
Remark: another data set of the same source

Row | Binder | EC50, IFNγ stimulation, NK92 cells [nM]
11 | IL-18 polypeptide of SEQ ID NO: 9 (E6K, C38A, K53A, C68A, D98C) (ligand) YFGKLKSKLSVIRNLNDQVLFIDQGNRPLFEDMTDSDARDNAPRTIFIISMYADSQPRGMAVTISVKAEKISTLSCENKIISFKEMNPPDNIKDTKSCIIFFQRSVPGHDNKMQFESSSYEGYFLACEKERDLFKLILKKEDELGDRSIMFTVQNED | 0.069
12 | IL-18 polypeptide of SEQ ID NO: 43 (E06K, K53A, S55A, Y01G) (ligand) GFGKLKSKLSVIRNLNDQVLFIDQGNRPLFEDMTDSDCRDNAPRTIFIISMYADAQPRGMAVTISVKCEKISTLSCENKIISFKEMNPPDNIKDTKSDIIFFQRSVPGHDNKMQFESSSYEGYFLACEKERDLFKLILKKEDELGDRSIMFTVQNED | 6.12
13 | IL-18 polypeptide of SEQ ID NO: 6 (E6K, V11I, C38A, K53A, T63A, C68A, C76A, D98C, C127A) (ligand) YFGKLKSKLSIIRNLNDQVLFIDQGNRPLFEDMTDSDARDNAPRTIFIISMYADSQPRGMAVAISVKAEKISTLSAENKIISFKEMNPPDNIKDTKSCIIFFQRSVPGHDNKMQFESSSYEGYFLAAEKERDLFKLILKKEDELGDRSIMFTVQNED | 1.37
14 | IL-18 polypeptide of SEQ ID NO: 4 (E6K, C38A, K53A, C68A, M86C) (ligand) YFGKLKSKLSVIRNLNDQVLFIDQGNRPLFEDMTDSDARDNAPRTIFIISMYADSQPRGMAVTISVKAEKISTLSCENKIISFKECNPPDNIKDTKSDIIFFQRSVPGHDNKMQFESSSYEGYFLACEKERDLFKLILKKEDELGDRSIMFTVQNED | 0.022
15 | IL-18 polypeptide of SEQ ID NO: 5 (E6K, V11I, C38A, K53A, T63A, C68A, C76A, M86C, C127A) (ligand) YFGKLKSKLSIIRNLNDQVLFIDQGNRPLFEDMTDSDARDNAPRTIFIISMYADSQPRGMAVAISVKAEKISTLSAENKIISFKECNPPDNIKDTKSDIIFFQRSVPGHDNKMQFESSSYEGYFLAAEKERDLFKLILKKEDELGDRSIMFTVQNED | 0.075
16 | IL-18 polypeptide of SEQ ID NO: 35 (Y01G, F02A, E06K, M51G, K53A, D54A, S55A, T63A) (ligand) GAGKLKSKLSVIRNLNDQVLFIDQGNRPLFEDMTDSDCRDNAPRTIFIISGYAAAQPRGMAVAISVKCEKISTLSCENKIISFKEMNPPDNIKDTKSDIIFFQRSVPGHDNKMQFESSSYEGYFLACEKERDLFKLILKKEDELGDRSIMFTVQNED | > 55
17 | IL-18 polypeptide of SEQ ID NO: 49 (E06K, K53A, S55A, C38S, C68S, C76S, C127S, K70C) (ligand) YFGKLKSKLSVIRNLNDQVLFIDQGNRPLFEDMTDSDSRDNAPRTIFIISMYADAQPRGMAVTISVKSECISTLSSENKIISFKEMNPPDNIKDTKSDIIFFQRSVPGHDNKMQFESSSYEGYFLASEKERDLFKLILKKEDELGDRSIMFTVQNED | 58.5
18 | IL-18 polypeptide of SEQ ID NO: 34 (E06K, K53A, S55A) (ligand) YFGKLKSKLSVIRNLNDQVLFIDQGNRPLFEDMTDSDCRDNAPRTIFIISMYADAQPRGMAVTISVKCEKISTLSCENKIISFKEMNPPDNIKDTKSDIIFFQRSVPGHDNKMQFESSSYEGYFLACEKERDLFKLILKKEDELGDRSIMFTVQNED | 0.824
19 | IL-18 polypeptide of SEQ ID NO: 45 (E06K, K53A, S55A, D54A) (ligand) YFGKLKSKLSVIRNLNDQVLFIDQGNRPLFEDMTDSDCRDNAPRTIFIISMYAAAQPRGMAVTISVKCEKISTLSCENKIISFKEMNPPDNIKDTKSDIIFFQRSVPGHDNKMQFESSSYEGYFLACEKERDLFKLILKKEDELGDRSIMFTVQNED | 30
20 | IL-18 polypeptide of SEQ ID NO: 44 (E06K, K53A, S55A, F02A) (ligand) YAGKLKSKLSVIRNLNDQVLFIDQGNRPLFEDMTDSDCRDNAPRTIFIISMYADAQPRGMAVTISVKCEKISTLSCENKIISFKEMNPPDNIKDTKSDIIFFQRSVPGHDNKMQFESSSYEGYFLACEKERDLFKLILKKEDELGDRSIMFTVQNED | > 1000
21 | IL-18 polypeptide of SEQ ID NO: 46 (E06K, K53A, S55A, M51G) (ligand) YFGKLKSKLSVIRNLNDQVLFIDQGNRPLFEDMTDSDCRDNAPRTIFIISGYADAQPRGMAVTISVKCEKISTLSCENKIISFKEMNPPDNIKDTKSDIIFFQRSVPGHDNKMQFESSSYEGYFLACEKERDLFKLILKKEDELGDRSIMFTVQNED | 7.4
